Biological target: Human recombinant p65 protein (SinoBiological 12054-H09E) (human) (UniProt Q04206)
Experiment: BLI; Forte-Bio Octet Red; anti-p65 Ab (5 μg/mL) captured on Protein A biosensors, 25 μg/mL recombinant p65 bound to it, ICP22 in solution at 62.5, 125, 250, 500 or 1000 nM; PBS

UniProt Q04206, sequence (Q04206 whole entry, stated change not applied): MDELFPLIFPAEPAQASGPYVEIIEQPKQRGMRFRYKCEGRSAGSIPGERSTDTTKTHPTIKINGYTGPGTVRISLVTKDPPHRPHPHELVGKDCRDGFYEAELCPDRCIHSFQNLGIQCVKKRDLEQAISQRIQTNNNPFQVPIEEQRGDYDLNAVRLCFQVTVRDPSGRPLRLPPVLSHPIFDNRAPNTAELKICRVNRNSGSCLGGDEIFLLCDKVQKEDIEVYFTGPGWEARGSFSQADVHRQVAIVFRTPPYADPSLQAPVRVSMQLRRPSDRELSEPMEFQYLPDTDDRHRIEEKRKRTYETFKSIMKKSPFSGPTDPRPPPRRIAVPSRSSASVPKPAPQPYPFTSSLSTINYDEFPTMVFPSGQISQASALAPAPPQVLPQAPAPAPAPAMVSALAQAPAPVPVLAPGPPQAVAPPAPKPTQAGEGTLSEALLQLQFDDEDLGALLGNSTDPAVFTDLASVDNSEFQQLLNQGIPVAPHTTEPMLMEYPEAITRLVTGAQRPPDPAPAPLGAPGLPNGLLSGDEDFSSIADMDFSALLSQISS

HA-tagged HSV-2 ICP22, purified (from UniProt P14379 1-197) (natural protein)
Kd: 218 nM

Reference: paper PMC9538160
